41 sequences from the nanobody polyreactivity screen of Harvey et al. (2022) can be followed below.

A short description of this data set: yeast display, Sf9 membrane polyspecificity reagent, FACS + sequencing; frameworks hold sequencing errors. The method, boiled down: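 Nanobodies came from a synthetic yeast display library in Saccharomyces cerevisiae BJ5465, induced with galactose for 36–48 hours and stained for 1 hour at 4 °C with 10% biotinylated, detergent-solubilized Sf9 membrane reagent. Cells were enriched on streptavidin microbeads and then FACS-sorted, with low and high (top ~1%) gates set on anti-HA fluorescence for expression and streptavidin fluorescence for reagent binding. Each polyreactivity label reflects the gate a clone came from. Genes were amplified by colony PCR, sequenced by MiSeq 2 × 250 and filtered by CDR length.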
Take “QVQLVESGGGLVQAGGSLRLSCAASGRIFSAYVMGWYRQAPGKERELVAAISSGGSRTSYADSVKGRFTISRDNAKNTVYLQMNSLKPEDTAVYYCAAARFYRSAYGYWGQGTQVTVSS”: the “polyreactivity (PSR sort gate)” value is recorded as “high polyreactivity”.
The same measure for “QVQLVESGGGLVQAGGSLRLSCAASGRIFSDYAMGWSSQAPGKERELVATITSGDSTNYADSVKGRFTISRDHAKNTVYLQMNSLKPEDTAVYYCNADRFADYDYWGQGTQVTVSS”: “low polyreactivity”; for “QVQLVESGGGLVQAGGSLRLSCAASGRIFSEYAMGWYRQAPGKERELVAAISKSGGRTYYADSVKGRFTISRDNAKNTVYLKMNSLKPEDTAVYYCNARAVYPAGYAYDYWGQGTQVTVSS”: “high polyreactivity”; for “QVQLVESGGGLVQAGGSLRLSCAASGRIFSFNAMGWYRQAPGKERELVAAISWSTGSTFYADSVKGRFTISRDNAKNTVYLQMNSLKPEDTAVYYCAREYYYRRGFFLRGYWGQGTQVTVSS”: “high polyreactivity”.
The value for “QVQLVESGGGLVQAGGSLRLSCAASGRIFSFNAMGWYRQAPGKERELVAGITDSGGSTYYADSVKGRFTISRDNAKNTVYFQMNSLKPEDTAVYYCNAEWPYSRVREYFYAYDYWGQGTQVTVSS” was “low polyreactivity”.
As to “QVQLVESGGGLVQAGGSLRLSCAASGRIFSFNGMGWYRQAPGKERELVAAITTSGGRTYYADSVKGRFTISRDNAKNTVYLQINSLKPEDTAVYYCAAELAWEYYWGQGTQVTVSS”, the “polyreactivity (PSR sort gate)” value is recorded as “low polyreactivity”.
The same measure for “QVQLVESGGGLVQAGGSLRLSCAASGRIFSGSVMGWYRQAPGKVRELVAGITYRDGSTYYADSVKGRFTISRDNAKNTVYFQMNSLKPEDTAVYYCNADDYNDIPYDYWGQGTQVTVSS”: “low polyreactivity”.
Regarding “QVQLVESGGGLVQAGGSLRLSCAASGRIFSGYAMGWYIQAHGKERELVAAISSTGGTYYADSVKGRFTISRDNAKNTVYLQMNSLKPEDTAVYYFAARYRTLTKYYWGQGTQVTVSS”, the “polyreactivity (PSR sort gate)” value is “low polyreactivity”.
As for “QVQLVESGGGLVQAGGSLRLSCAASGRIFSGYAMGWYRQAPGKERELVAVITSTGGSTYYADSVKGRFTISRDNAKNTVYLQMNSLKPEDTAVYYCATRGVRRYYKTMNYWGQGTQVTVSS”, the “polyreactivity (PSR sort gate)” value is on record as “high polyreactivity”.
For the sequence “QVQLVESGGGLVQAGGSLRLSCAASGRIFSGYVKGWYRQAPGKERELVASISRGGSTNYADSVKGRFTISRDNAKNTVYLQMNSLKPEDTAVYYCNKRWFAPPPYSYVRSYDYWGQGTQVTVSS”, the “polyreactivity (PSR sort gate)” value was “low polyreactivity”.
The value for “QVQLVESGGGLVQAGGSLRLSCAASGRIFSHDVMGWYRQAPGKERELVAAISSSGGSTYYADSVKGRFTISRDNAKNTVYLQMNSLKPEDTAVYYCAADQWASGTDDYWGQGTEVTVSS” was “low polyreactivity”.
“QVQLVESGGGLVQAGGSLRLSCAASGRIFSHNVMGWYRQAPGKERELVAAISGRDGSTYYADSVKGRFTISRDNAKNTVYLQMNSLKPEDTAVYYCATDTSNVEGDYWGQGTQVTVSS”: the “polyreactivity (PSR sort gate)” value is recorded as “low polyreactivity”.
The value for “QVQLVESGGGLVQAGGSLRLSCAASGRIFSHYAMGLYREAPGKERELVAAITGSGGITYYADSVKGRFTISRDKSKNTVFLQMISLKPEDTAVYYCAADGLSKFDYLGQGTQVTVSS” was “low polyreactivity”; that for “QVQLVESGGGLVQAGGSLRLSCAASGRIFSHYAMGWYRQAPGKEREFVAAITYSGGSTYYADSVKGRFTISRDNAKNTVYLQMNSLKPEDTAVYYCNAKGYAKYYYWGQGTQVTVSS” was “high polyreactivity”.
The same measure for “QVQLVESGGGLVQAGGSLRLSCAASGRIFSIYGMGWSRQAPGKERELVAVISGSVGITYYADSVKVRFTISRDNAKNTVYLQMISLKPEDTAVYYCNAKVRRRKYDYWGQGTQVTVSS”: “high polyreactivity”; for “QVQLVESGGGLVQAGGSLRLSCAASGRIFSKNAMGWYRQAPGKERELVAAISSRGGSTYYADSVKGRFTISRDNAKNTVYLQMNSLKPEDTAVYYCAAGNGAYNYWCRYGYWGQGTQVTVSS”: “high polyreactivity”.
Turning to “QVQLVESGGGLVQAGGSLRLSCAASGRIFSLNTLGWYRQAPGKERELVAAINRGGRSYYADSVKGRFTISRDNAKITVNLQMNSLKPEDTAVYYCAAEVVRQGSYRYGYWGQGTQVTVSS”, the “polyreactivity (PSR sort gate)” value is recorded as “high polyreactivity”.
The value for “QVQLVESGGGLVQAGGSLRLSCAASGRIFSLYAMGWYRQAPGKERELVAAISWSGGTTYYADSVKGRFTISRDNAKNTVYLQMNSLKPEDTAVYYCAADTGTGLDWGQGSQVTVSS” was “high polyreactivity”; that for “QVQLVESGGGLVQAGGSLRLSCAASGRIFSLYAMGWYRQAPGKERELVATMDSNGGSTYYADSVKGRFTISRDNAKNTVYLQMNSLKPEDTAVYYCAAERYVRVWVAGILHYDYWGQGTQVTVSS” was “low polyreactivity”; that for “QVQLVESGGGLVQAGGSLRLSCAASGRIFSLYAMGWYRQAPGKERELVAVITYRGGDSTYYADSVKGRFTISRDNAKNTVYLQMNSLKPEDTAVYYCAAGQPLYQRRHSSRTYYYWGQGTQVTVSS” was “high polyreactivity”.
The same measure for “QVQLVESGGGLVQAGGSLRLSCAASGRIFSNNAMGWYRQAPGKERELVAAISWNGGRTYYADSVKGRFTISRDNAKNTVYLQMNSLKPEDTAVYYCAAGRYDYWGQGTQVTVSS”: “high polyreactivity”.
For “QVQLVESGGGLVQAGGSLRLSCAASGRIFSPYAMGWYRQAPGKERELVAAISFSAASTYYADSVKGRFTISRDNAKNTVYLQMNSLKPEDTAVYYCAADYWGQGTQVTVSS”, the “polyreactivity (PSR sort gate)” value is “high polyreactivity”.
The value for “QVQLVESGGGLVQAGGSLRLSCAASGRIFSPYAMGWYRQAPGKERELVAAISGRGGRTYYADSVKGRFTISRDNAKNTVYLQMNSLKPEDTAVYYCNRVVSGYPGSDYWGQGTQVTVSS” was “high polyreactivity”; that for “QVQLVESGGGLVQAGGSLRLSCAASGRIFSPYTMGWYRQAPGKERELVAAINERGTSTYYADTVKGRFSISRDNAKNTVYLQKNSLKPEDTAVYYCAARVRQRRYGTTSGGYDYWGQGTQVTVSS” was “high polyreactivity”; that for “QVQLVESGGGLVQAGGSLRLSCAASGRIFSQYAMGWYRQAPGKERELVAAISRRTGSTYYADSVKGRFTISRDNAKNTVYLQMNSLKPEDTAVYYCNKARLGWSYRQDDYLGQGTQVTVSS” was “high polyreactivity”.
The same measure for “QVQLVESGGGLVQAGGSLRLSCAASGRIFSRNAMGWYRQAPGKEREFVAAISRRGTSTYYADSVKGRFTISRDNAKNTVYLQMNSLIPEDTAVYYCNAGGSPWYKPVYYRALYDYWGQGTQVTVSS”: “high polyreactivity”.
The same measure for “QVQLVESGGGLVQAGGSLRLSCAASGRIFSRNAMGWYRQAPGKERELVAAITSGGSTYYADSVKGRFTISRDNAKNTVYLQMNSLKPEDTAVFYCAKRLTYYSWYHRYDYWGQGTQVTVLS”: “high polyreactivity”; for “QVQLVESGGGLVQAGGSLRLSCAASGRIFSRYAMGWYRQAPGKERELVAAINKSGGSTYYADSVKGRFTISRDNAKNTVYLQMNSLKPEDTAVYYCATDDPVYDYDYWGQGTQVTVSS”: “high polyreactivity”.
For “QVQLVESGGGLVQAGGSLRLSCAASGRIFSRYAMGWYRQAPGKERELVAAISRRGGSTYYADSVKGRFTISRDNAKNTVYLQMNSLKPEDTAVYYCAADFSPYYDLATEISDYWGQGTQVTVSS”, the “polyreactivity (PSR sort gate)” value is “high polyreactivity”.
The value for “QVQLVESGGGLVQAGGSLRLSCAASGRIFSRYAMGWYRQAPGKERELVAAITQSGTSTYYADSVKGRFTISRDNAKNTVYLQMKSLKPEDTAVYYCNAYRQYRYDYWGQGTQVTVSS” was “low polyreactivity”; that for “QVQLVESGGGLVQAGGSLRLSCAASGRIFSRYAMGWYRQAPGKEREMVAAIRSNGGRTYYADSVKGRFTISRDNAKNTVYLQMNSLKPEDTAVYYCAAAGGGKVSYRDYDYWGQGTQVTVSS” was “high polyreactivity”.
“QVQLVESGGGLVQAGGSLRLSCAASGRIFSRYAMGWYRQAPGTERELVAAINKSGGSTYYADSVKGRFTISRDNAKNTVYLQMNSLKPEDTAVYYCNAVYYWYKGDYWGQGTQVTVSS”: the “polyreactivity (PSR sort gate)” value is on record as “high polyreactivity”.
“QVQLVESGGGLVQAGGSLRLSCAASGRIFSRYAMGWYRQAPGTERELVAAISASGGSTYYADSVKGRFTISRDNAKNTVYLQMNSLKPEDTAVYYCNAYQTSTTLFPGYGYWGQGTQVTVSS”: the “polyreactivity (PSR sort gate)” value is listed as “low polyreactivity”.
For the sequence “QVQLVESGGGLVQAGGSLRLSCAASGRIFSRYTMGWYRQAPGKERELVAAISSRGGSTYYADSVKGRFTISRDNAKNTVYLQMNSLKPEDTAVYYCNTPSYSGSSPYDHWGQGTQVTVSS”, the “polyreactivity (PSR sort gate)” value was “high polyreactivity”.
With “QVQLVESGGGLVQAGGSLRLSCAASGRIFSRYTMGWYRQAPGKERELVAGITRGGGSTYYADSVKGRFTISRDNAKNTVYLQMNSLKPEDNAVYYCNAETSYAWWHYDYWGQGTQVTVSS”, the “polyreactivity (PSR sort gate)” value is given as “low polyreactivity”.
The same measure for “QVQLVESGGGLVQAGGSLRLSCAASGRIFSSNAMGSYRQAPGKERELVAGISIRGGSTYYADSVKGRFTISRDNAKNTVYLQMNSLKPEDTAVYYCAKDGRRRRTFDYWGQGTQVTVSS”: “high polyreactivity”; for “QVQLVESGGGLVQAGGSLRLSCAASGRIFSSYALGWYRQARGKERELVAAISASGGRTYYADSVKGRCTISRDNAKNTVYLQMNSLKPEDTAVYYCNRGYISGSVVERYYWGQGTQVTVSS”: “high polyreactivity”; for “QVQLVESGGGLVQAGGSLRLSCAASGRIFSSYAMGWYRQAPGKERELVAAISGSGGRTYYADSVKGRFTISRDNAKNTVYLQMNSLKPEDTAVYYCNARRRSPYSTGVAYDYWGQGTQVTVSS”: “high polyreactivity”.
The value for “QVQLVESGGGLVQAGGSLRLSCAASGRIFSSYAMGWYRQAPGKERELVAAISSSGGNTYYADSVKGRFTISRDNAKNTVYLQMNSLKPEDTAVYYCNTRWVHRDWYDYWGLGTQVTVSS” was “high polyreactivity”; that for “QVQLVESGGGLVQAGGSLRLSCAASGRIFSSYAMGWYRQAPGKERELVAANSRSGARTYYADSVKGRFTISRDNAKNTVYLQMNSLKPEDTAVYYCAAVTVAGYDYWGQGTQVTVSS” was “high polyreactivity”.
The same measure for “QVQLVESGGGLVQAGGSLRLSCAASGRIFSTNAMGWYRPAPGKERELVAAINWSTGSYVLRRSVKGRFTISRDTAKNTVYLQMNSLKPEDTAVYYCAATWRNPGKATQRYYYWGQGTQVTVSS”: “high polyreactivity”.
